Key:
MICA004-ECD-HISAvi [1] = biological target: T1, MICA004-ECD-HISAvi (human); experiment: SPR (Carterra); antibody captured by anti-human Fc, monomeric ECD antigen injected;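 further: dissociation phase followed for about 10 min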
T1 construct: also called MICA004 polypeptide
T1 chain: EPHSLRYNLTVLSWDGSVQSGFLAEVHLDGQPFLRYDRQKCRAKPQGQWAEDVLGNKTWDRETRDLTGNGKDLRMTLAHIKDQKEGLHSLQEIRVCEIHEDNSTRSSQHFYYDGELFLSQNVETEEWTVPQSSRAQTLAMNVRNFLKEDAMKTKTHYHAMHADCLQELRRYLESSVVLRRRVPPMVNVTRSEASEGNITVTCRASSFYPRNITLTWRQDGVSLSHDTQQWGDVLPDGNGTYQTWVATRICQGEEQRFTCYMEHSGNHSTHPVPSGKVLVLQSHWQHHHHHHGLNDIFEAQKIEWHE
Protocol: (§1) The dissociation kinetics were monitored for approximately 10 minutes. The chip surface was regenerated between binding cycles with 10 mM glycine HCl, pH 1.7. Binding kinetics were analyzed using software supplied by the manufacturer.

MICA008-ECD-HISAvi [2] = biological target: T2, MICA008-ECD-HISAvi (human); experiment: as above
T2 construct: Two sources under one name in the two kinetic assays; also called MICA008 polypeptide
T2 chain: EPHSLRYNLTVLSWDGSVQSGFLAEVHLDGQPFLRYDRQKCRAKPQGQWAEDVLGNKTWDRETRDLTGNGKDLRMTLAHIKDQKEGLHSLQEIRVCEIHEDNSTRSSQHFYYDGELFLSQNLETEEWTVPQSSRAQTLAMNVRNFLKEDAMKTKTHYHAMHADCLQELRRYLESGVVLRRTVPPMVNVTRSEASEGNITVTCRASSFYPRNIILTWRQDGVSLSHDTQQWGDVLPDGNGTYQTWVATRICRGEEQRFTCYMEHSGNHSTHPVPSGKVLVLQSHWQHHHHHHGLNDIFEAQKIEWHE
Protocol: as §1

MICA002-ECD-HISAvi [3] = biological target: T3, MICA002-ECD-HISAvi (human, UniProt Q29983 24-308); experiment: as above
T3 construct: also called MICA002 polypeptide
T3 chain: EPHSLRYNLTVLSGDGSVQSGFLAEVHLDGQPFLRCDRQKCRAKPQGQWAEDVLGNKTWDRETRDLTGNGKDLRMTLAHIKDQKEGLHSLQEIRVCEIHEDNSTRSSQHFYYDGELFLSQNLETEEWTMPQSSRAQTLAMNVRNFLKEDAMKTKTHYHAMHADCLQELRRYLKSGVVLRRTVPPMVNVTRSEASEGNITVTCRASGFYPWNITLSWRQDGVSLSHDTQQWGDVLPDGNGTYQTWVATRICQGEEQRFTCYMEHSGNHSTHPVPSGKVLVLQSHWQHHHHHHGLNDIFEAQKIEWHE
Protocol: as §1

MICB005-ECD-HISAvi [4] = biological target: T4, MICB005-ECD-HISAvi (human, UniProt Q29980 24-309); experiment: as above
T4 construct: Two sources under one name in the two kinetic assays; also called MICB005 polypeptide
T4 sequence: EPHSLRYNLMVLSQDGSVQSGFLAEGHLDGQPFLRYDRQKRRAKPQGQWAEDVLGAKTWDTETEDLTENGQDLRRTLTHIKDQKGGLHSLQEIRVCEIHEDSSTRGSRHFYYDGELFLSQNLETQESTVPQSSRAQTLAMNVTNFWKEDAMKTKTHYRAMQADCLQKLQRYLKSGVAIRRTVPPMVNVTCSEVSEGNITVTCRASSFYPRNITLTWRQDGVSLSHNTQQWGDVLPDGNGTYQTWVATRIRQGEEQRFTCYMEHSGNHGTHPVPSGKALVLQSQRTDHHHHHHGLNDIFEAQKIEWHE
Protocol: as §1

human MICA004 on cells = biological target: T5, human MICA004 on cells (human); experiment: flow cytometry, CHO-MICA004 cells
T5 construct: whole, on cells; also called CHO-MICA004; C1R-MICA004
Protocol: (§2) IgG1 is an isotype control (IgG). The antibody binding signals of APC (gMFI) to MICA/B were measured by flow cytometry.
(§3) After an incubation time of 30 minutes, the plate was centrifuged and cells were washed with PBS three times. […] After mixing for 30 minutes at room temperature, cells were washed with PBS twice. Fluorescent signal was detected and quantified by flow cytometry (Attune™ CytPix™, ThermoFisher) within the population of live cells (viability dye PI negative).

human MICA008 on cells [5] = biological target: T6, human MICA008 on cells (human); experiment: flow cytometry, CHO-MICA008 cells
T6 construct: whole, on cells; also called CHO-MICA008; C1R-MICA008
Protocol: as §2, §3

human MICA008 on cells [6] = biological target: T6, human MICA008 on cells; experiment: flow cytometry, HeLa cells (MICA008)
Protocol: as §2, §3

human MICB005 on cells = biological target: T7, human MICB005 on cells (human); experiment: flow cytometry, CHO-MICB005 cells
T7 construct: whole, on cells; also called CHO-MICB005; C1R-MICB005
Protocol: as §2, §3

human MICA002 on cells = biological target: T8, human MICA002 on cells (human); experiment: flow cytometry, CHO-MICA002 cells
T8 chain: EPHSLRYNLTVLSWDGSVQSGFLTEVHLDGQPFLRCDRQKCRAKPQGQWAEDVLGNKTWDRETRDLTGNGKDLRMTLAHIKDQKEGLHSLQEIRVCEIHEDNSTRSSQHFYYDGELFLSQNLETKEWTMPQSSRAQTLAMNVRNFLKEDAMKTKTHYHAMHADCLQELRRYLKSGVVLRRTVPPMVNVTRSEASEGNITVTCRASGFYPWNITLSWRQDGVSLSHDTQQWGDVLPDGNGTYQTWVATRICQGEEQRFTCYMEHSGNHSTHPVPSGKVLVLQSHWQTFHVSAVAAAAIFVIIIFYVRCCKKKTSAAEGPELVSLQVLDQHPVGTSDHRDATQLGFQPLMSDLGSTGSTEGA

MICA004-ECD-HISAvi [7] = biological target: T1, MICA004-ECD-HISAvi; experiment: BLI (GatorPrime); antibody on anti-hIgG Fc probe, monomeric antigen in solution;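 further: binding kinetics of anti-MICA/B antibodies measured by biolayer interferometry, with dissociation followed for about 10 min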
Protocol: (§4) The binding kinetics of the antibodies were also measured using the GatorPrime BLI (Biolayer Interferometry) system (Gator Bio, USA). Specifically, the anti-MICA/B antibodies were loaded with HFC (Anti-hIgG Fc, Gator Bio, Cat #: 160003). […] The dissociation kinetics were monitored for approximately 10 minutes. The probes were regenerated between binding cycles with Regeneration Buffer (Gator Bio, Cat #: 120012). Binding kinetics were analyzed using software supplied by the manufacturer.

MICA008-ECD-HISAvi [8] = biological target: T2, MICA008-ECD-HISAvi; experiment: as above
Protocol: as §4

MICA002-ECD-HISAvi [9] = biological target: T3, MICA002-ECD-HISAvi; experiment: as above
Protocol: as §4

MICB005-ECD-HISAvi [10] = biological target: T4, MICB005-ECD-HISAvi; experiment: as above
Protocol: as §4

T6 sequence (Q29983 whole entry): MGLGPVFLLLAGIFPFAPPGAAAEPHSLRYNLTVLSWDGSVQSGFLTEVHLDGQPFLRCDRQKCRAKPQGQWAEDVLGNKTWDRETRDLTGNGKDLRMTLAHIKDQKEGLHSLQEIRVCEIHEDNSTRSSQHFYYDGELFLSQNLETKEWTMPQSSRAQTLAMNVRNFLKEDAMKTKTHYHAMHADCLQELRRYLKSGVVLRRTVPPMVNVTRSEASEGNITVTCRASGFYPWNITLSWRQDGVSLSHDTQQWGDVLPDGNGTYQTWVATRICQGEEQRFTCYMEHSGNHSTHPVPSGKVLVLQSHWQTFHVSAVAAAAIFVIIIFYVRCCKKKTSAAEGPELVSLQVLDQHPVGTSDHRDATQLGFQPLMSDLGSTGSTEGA
T5 sequence (Q29983 whole entry): as above

Row | Binder | Kd (MICA004-ECD-HISAvi [1]) [nM] | Kd (MICA008-ECD-HISAvi [2]) [nM] | Kd (MICA002-ECD-HISAvi [3]) [nM] | Kd (MICB005-ECD-HISAvi [4]) [nM] | EC50 (human MICA004 on cells) [µg/mL] | EC50 (human MICA008 on cells [5]) [µg/mL] | EC50 (human MICA008 on cells [6]) [µg/mL] | EC50 (human MICB005 on cells) [µg/mL] | EC50 (human MICA002 on cells) [µg/mL] | binding result (MICA004-ECD-HISAvi [7]) | binding result (MICA008-ECD-HISAvi [8]) | binding result (MICA002-ECD-HISAvi [9]) | binding result (MICB005-ECD-HISAvi [10])
1 | #34 (antibody, human IgG1, V domains shown, also called PL111H04; Hit ID 34) VH: QVQLKQSGPELVKPGASVKVSCKASGYAFTKYNIYWVKQSHGKSLEWIGYIDPYNGGTVQNQKFKGKATLTVDKSSSTAYMHLNSLTSEDSAVYYCATTDGYSLFTYWGQGTLVTVSS VL: DIVLTQSPTTMAASPGEKITITCSASSSISSNYLHWYQQKPGFSPKLLIYRTSNLASGVPARFSGSGSGTSYSLTIGTMEAEDVATYYCQQGSSIPFTFGSGTKLEIK | 44.5 | 29.2 | 24.9 | 38 | 0.202 | 0.048 | 0.122 | 0.278 | 0.144 |  |  |  | 
2 | #38 (antibody, human IgG1, V domains shown, also called PL114H02; Hit ID 38) VH: QVQLQQSGAELARPGASVKLSCKASGYTFSIHWMQWVKQRPGQGLEWIGAIYPGNGDTKYTQKFKGKATLTADKSSSTAYMQLSNLASEDSAVYYCATLYGNYEAYWGQGTLVTVSA VL: DIVLTQSPASLSASVGETVTITCGASENIYGALNWYQRKQGKSPQLLIYGTTNLADGMSSRFSGSGSGRQYSLKISSLHPDDVATYYCQNVLTTPPWTFGGGTKLEIK | 3.77 | 7.04 | 2.49 | 1.78 | 3.93 | 1.1 | 1.85 | 1.42 | 2.48 |  |  |  | 
3 | #39 (antibody, human IgG1, V domains shown, also called PL114G03; Hit ID 39) VH: QVQLQQSGAELVRPGTSVKVSCKASGYAFTDYLIEWVKQRPGQGLEWIGGINPGSGSTNYNEKFKGKAILTADKSSSTAYMQLSSLTSDDSAVYFCARLDGNYVGYWGQGTTLTVSS VL: DILLTQSPASLSASVGETVTITCRASGNIHNYLAWYQQKQGKSPQLLVYHAKTLADGVPSRFSGSGSGTQYSLKINSLQPEDFGSYYCQHFWSTPWTFGGGTKLEIK | 139 | 54.8 | 14.4 | 5.37 | 7.27 | 1.31 | 4.27 | 1.4 | 3.68 |  |  |  | 
4 | #40 (antibody, human IgG1, V domains shown, also called PL113C03; Hit ID 40) VH: QVQLQQSGPELVKPGASVKVSCKASGYAFTKYNIYWVKQSHGKSLEWIGYIDPYNGGTVYNQKFKGKATLTVDKSSSTAYMHLNSLTSEDSAVYYCATTDGYSLFTYWGQGTLVTVSA VL: DIQMTQTTSSLSASLGDRVTITCSAGQGINNYLNWYQQKPDGTVKLLIFYTSSLQSGVPSRFSGSGSGADYSLTISNLEPEDIATYYCQQYSKLPLTFGAGTKLELK | 30.4 | 20.5 | 13.9 | 45.8 | 0.306 | 0.085 | 0.183 | 0.445 | 0.176 |  |  |  | 
5 | CM33322 (antibody, human IgG1, kappa) heavy: not shown light: DIVMTQTPLSSPVTLGQPASISCRSSQSLVHRDGNTYLSWFLQRPGQAPRLLIYRISNRFSGVPDRFSGSGAGTDFTLKISRVEAEDVGVYYCMQATQIPNTFGQGTKLEIKRTVAAPSVFIFPPSDEQLKSGTASVVCLLNNFYPREAKVQWKVDNALQSGNSQESVTEQDSKDSTYSLSSTLTLSKADYEKHKVYACEVTHQGLSSPVTKSFNRGEC |  |  |  |  |  |  |  |  |  | no binding | no binding | no binding | no binding

Source: US20250368742A1 (D2M BIOTHERAPEUTICS, published 2025)
